Experiment [1] concerns the target T1, Recombinant Human DLL4 (delta-like protein 4) (human, UniProt Q9NR61 27-529).
T1 construct: Bought recombinant human DLL4 (R&D Systems Cat#1506-D4/CF), coated on the plate; also called rHuman DLL4; Delta-like 4
The experiment can be described thus: ELISA on coated DLL4, 100 nM Fab. Background: An ELISA detects its analyte on a solid surface through an enzyme-linked reagent.

The target in experiment [2] is T1, Recombinant Human DLL4 (delta-like …). Put plainly: 96-well plate ECL (MSD) binding assay on coated DLL4, 10 nM Fab.

B1: Fab VH1-46_IGHD6-6*01_IGHJ1*01 S102A/S103P/S104F/H111F/I51S/N52L/S54T/G56H (APFF SLTH) & L6_IGKJ1*01 (Fab, V domains shown)
VH: QVQLVQSGAEVKKPGASVKVSCKASGYTFTSYYMHWVRQAPGQGLEWMGISLPTGHSTSYAQKFQGRVTMTRDTSTSTVYMELSSLRSEDTAVYYCAREEYAPFSAEYFQFWGQGTLVTVSS
VL: not shown
notes: Fab made in E. coli; CH1 with tags and kappa CL are not included
Take B1: the “ELISA signal” value in experiment [1] was 0.786. Further, the “ECL signal” value in experiment [2] was determined as 135000.

The record behind these values is patent US20120316071A1 (published 2012).
